Biological target: mouse CD3epsilon protein (mouse) (UniProt P22646)
Assay: ELISA, antigen coated on plate

mouse CD3epsilon protein (mouse), sequence (P22646 22-108 limits assumed): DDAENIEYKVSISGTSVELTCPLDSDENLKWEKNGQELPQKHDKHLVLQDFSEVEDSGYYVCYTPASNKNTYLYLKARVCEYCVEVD

Row | Binder | ELISA A450
1 | WBP3311_2.306.4 (antibody, IgG2b, V domains shown) VH: QVQLQQSGPELVKPGASVRISCKASGFAFTDYYIHWVKQRPGQGLEWIGWISPGNVNTKYNENFKGRATLTADLSSSTAYMQLSSLTSEDSAVYFCARDGYSLYYFDYWGQGTTLTVSS VL: DIVMSQSPSSLTVSAGEKVTMSCKSSQSLLNSRTRKNYLAWYQQKPGQSPKLLIYWASTRQSGVPDRFTGSGSGTAFTLTISGVQAEDLAVYFCTQSHTLRTFGGGTKLEIK | 0.711 A450
2 | WBP3311_2.383.47 (antibody, V domains shown) VH: QVQLQQSGPELVKPGASVRISCKTSGFTFTNYYIHWVIQRPGQGLEWIGWISPENGNTKYNENFQDKATLTADISSSTAYMHLSSLTSEDSAVYFCARDGYSLYYFDYWGQGTTLTVSS VL: DIVMSQSPSSLTVSAGEKVTMSCKSSQSLLNSRTRKNYLAWYQQKPGQSPKLLIYWASIRVSGVPDRFTGSGSGTTFTLTISGVQAEDLAVYYCTQSHTLRTFGGGTKLEIK | 0.666 A450
3 | WBP331_2.488.33 (antibody, V domains shown) VH: QVQLQQSGPELVKPGTSVKISCKASGFSFTNYYIHWVKQRPGQGPEWIGWIFPGTVNTKYNEKFKGKATLTADTSSNTAFMQLSSLTSADSAVYFCARDSVGIYYFDFWGLGTTLTVSS VL: DIVMSQSPSSLAVSAGEKVTVSCKSSQSLLNNRTRKNYLAWYQQKPGQSPKLLIYWASTRESGVPDRFTGSGSGTDFTLTISSVQAEDLAVYYCTQSFILRTFGGGTKLEIK | 0.607 A450
4 | WBP3311_2.844.8 (antibody, V domains shown) VH: QVQLQQSGPELVKPGASVRISCKASGFAFTDYYIHWVKQRPGQGLEWIGWISPGNVNTKYNENFKGRATLTADLSSSTAYMQLSSLTSEDSAVYFCARDGYSLYYFDYWGQGTTLTVSS VL: DIVMSQSPSSLTVSAGEKVTMSCKSSQSLLNSRTRKNYLAWYQQKPGQSPKLLIYWASTRESGVPDRFTGSGSGTAFTLTISGVQAEDLAVYFCTQSHTLRTFGGGTKLEIK | 0.6 A450
5 | WBP3311_2.400.5 (antibody, V domains shown) VH: QVQLQQSGPELVNPGASVKISCKASGYSFTNYYLHWVKQRPGQGLEWIGWIFPESDNTKYNEKLKGKATLTADTSSDTAYMHLSSLTFEDSAVYFCARDSVGNYFFDFWGQGTTLTVSS VL: DIVMSQSPSSLAVSAGEKVTMRCKSSQSLVNNRTRKNYLAWYQQKPGQPPKLLIYWASTRESGVPDRFTGSGSGTDFTLTISSVQAEDLAVYYCAQSFILRTFGGGTKLEIK | 0.709 A450
6 | WBP3311_2.482.5 (antibody, V domains shown) VH: QVQLQQSGPELVKPGSSVKISCKPSGYTFTTYYIHWVKQRPGQGLEWIGWIFPGSDNIKYNENFKDKATLTADTSSSTAYMQLSSLTSEDSAVYFCARDSVSRYYFDYWGQGTILTVSS VL: DIVMSQSPSSLAVSAGEKVTMSCKSSQSLVNDRTRKNYLAWYQQKPGLSPKLLIYWASTRESGVPDRFTGSGSGTDFTLTISSVQAEDLAVYYCAQSFILRTFGGGTKLEIK | 0.61 A450

Reference: patent US20200299384A1
